Tests used:
Test in all cases: Biacore; eBiosc hIL23
119C9 = molecular target: 119C9
121C7 = molecular target: 121C7
81D1 = molecular target: 81D1
124H5 = molecular target: 124H5
123F1 = molecular target: 123F1
119H1 = molecular target: 119H1
119B3 = molecular target: 119B3
12A11 = molecular target: 12A11
124G2 = molecular target: 124G2
119C3 = molecular target: 119C3
124D2 = molecular target: 124D2
12D2 = molecular target: 12D2
124H2 = molecular target: 124H2
3D4 = molecular target: 3D4
4F3 = molecular target: 4F3
3E1 = molecular target: 3E1
3C7 = molecular target: 3C7
3A10 = molecular target: 3A10
3G9 = molecular target: 3G9
3H5 = molecular target: 3H5
3A7 = molecular target: 3A7
3A11 = molecular target: 3A11
1G8 = molecular target: 1G8

koff (119C9): 0.0012 s⁻¹ | koff (121C7): 0.000112 s⁻¹ | koff (81D1): 0.0114 s⁻¹ | koff (124H5): 3.54e-05 s⁻¹ | koff (123F1): 0.000377 s⁻¹ | koff (119H1): 0.0106 s⁻¹ | koff (119B3): 0.00015 s⁻¹ | koff (12A11): 0.000134 s⁻¹ | koff (124G2): 9.28e-05 s⁻¹ | koff (119C3): 0.0334 s⁻¹ | koff (124D2): 0.000103 s⁻¹ | koff (12D2): 0.000125 s⁻¹ | koff (124H2): 5.88e-05 s⁻¹ | koff (3D4): 0.0062 s⁻¹ | koff (4F3): 0.00208 s⁻¹ | koff (3E1): 0.00866 s⁻¹ | koff (3C7): 0.0102 s⁻¹ | koff (3A10): 0.00286 s⁻¹ | koff (3G9): 0.00672 s⁻¹ | koff (3H5): 0.00333 s⁻¹ | koff (3A7): 0.00507 s⁻¹ | koff (3A11): 0.00513 s⁻¹ | koff (1G8): 0.00223 s⁻¹
B1: eBiosc hIL23 (ligand)
chain 1: RAVPGGSSPAWTQCQQLSQKLCTLAWSAHPLVGHMDLREEGDEETTNDVPHIQCGDGCDPQGLRDNSQFCLQRIHQGLIFYEKLLGSDIFTGEPSLLPDSPVGQLHASLLGLSQLLQPEGHHWETQQIPSLSPSQPWQRLLLRFKILRSLQAFVAVAARVFAHGAATLSP
chain 2: IWELKKDVYVVELDWYPDAPGEMVVLTCDTPEEDGITWTLDQSSEVLGSGKTLTIQVKEFGDAGQYTCHKGGEVLSHSLLLLHKKEDGIWSTDILKDQKEPKNKTFLRCEAKNYSGRFTCWWLTTISTDLTFSVKSSRGSSDPQGVTCGAATLSAERVRGDNKEYEYSVECQEDSACPAAEESLPIEVMVDAVHKLKYENYTSSFFIRDIIKPDPPKNLQLKPLKNSRQVEVSWEYPDTWSTPHSYFSLTFCVQVQGKSKREKKDRVFTDKTSATVICRKNASISVRAQDRYYSSSWSEWASVPCS

From US20110053865A1 (published 2011)
